Target: human 40S ribosomal subunit (human) (UniProt P62269)
Assay: cryo-EM structure

other: 40%
Substance: human eIF3 (from UniProt P55884 1-814; Q99613 1-913; O15371 1-548; O75821 1-320; Q13347 1-325) (complex)
